The values below come from paper PMC11026464, “Local environment in biomolecular condensates modulates enzymatic activity across length scales” (Nature Communications, 2024).

In series [1] the target is Dbp1-NOX (LCD of Dbp1 from Saccharomyces cerevisiae, residues 1 to 155, fused to the N-terminus of NADH oxidase from Thermus thermophilus) (Saccharomyces cerevisiae | Thermus thermophilus) (UniProt P24784). In words: single-molecule mass photometry; 20 nM protein in low ionic strength buffer (20 mM NaCl), 25 °C, measured over 1 min; Refeyn OneMP.
In another series the test system is T1, Dbp1-NOX.
T1 construct: single fusion chain: Dbp1 LCD (1-155) at N-terminus of NOX; E. coli, heat shock and IMAC; dimer 79 kDa; forms condensates/nanoclusters at low salt; with ATP-dependent RNA helicase DBP1 (Saccharomyces cerevisiae)
In words: NADH absorbance decrease at […] nm, Michaelis-Menten fit. In kind it is biochemical, Thermus thermophilus. Conditions: 1 µM enzyme, two-phase micron-sized condensates (apparent, average of dilute and dense phase); 100 µM FAD, O2; 25 mM Tris, 20 mM NaCl, pH 7.5; NADH 50-200 µM.

Substrate in the series “purified protein”: NC(=O)C1=CN([C@@H]2O[C@H](COP(=O)(O)OP(=O)(O)OC[C@H]3O[C@@H](n4cnc5c(N)ncnc54)[C@H](O)[C@@H]3O)[C@@H](O)[C@H]2O)C=CC1
In words: purified protein. As to conditions: 1 µM enzyme, homogeneous, 100 µM FAD, O2, 25 mM Tris, 20 mM NaCl, pH 7.5, NADH 50-200 µM. In kind it is biochemical, Thermus thermophilus.

Series [2] concerns the molecule itself. In words: single-molecule mass photometry; 20 nM protein in low ionic strength buffer (20 mM NaCl), 25 °C, measured over 1 min; Refeyn OneMP.

“Dbp1-NOX (LCD of Dbp1 from Saccharomyces cerevisiae, residues 1 to 155, fused to the N-terminus of NADH oxidase from Thermus thermophilus) (from UniProt P24784 1-155) (enzyme)” returned a stoichiometry N in series [1] of 2. `NC(=O)C1=CN([C@@H]2O[C@H](COP(=O)(O)OP(=O)(O)OC[C@H]3O[C@@H](n4cnc5c(N)ncnc54)[C@H](O)[C@@H]3O)[C@@H](O)[C@H]2O)C=CC1` [NADH]: the Km in the series with Dbp1-NOX was determined as 89 ± 34 µM.

B1: NADH oxidase from Thermus thermophilus (NOX) (enzyme)
chain: MEATLPVLDAKTAALKRRSIRRYRKDPVPEGLLREILEAALRAPSAWNLQPWRIVVVRDPATKRALREAAFGQAHVEEAPVVLVLYADLEDALAHLDEVIHPGVQGERREAQKQAIQRAFAAMGQEARKAWASGQSYILLGYLLLLLEAYGLGSVPMLGFDPERVRAILGLPSHAAIPALVALGYPAEEGYPSHRLPLERVVLWR
notes: NADH oxidase (NOX) from Thermus thermophilus; codon-optimised gene cloned into pET-15b; Purified by heat shock only, so it is not clear whether a His tag is on this protein; The dimer peak in mass photometry is printed as 45 kDa; also called unconjugated NOX; source: E. coli BL21-GOLD (DE3), purified (heat shock method)
Turning to B1, in “purified protein”, the Km is 81 ± 36 µM and the kcat came out at 1.12 ± 0.21 s⁻¹. Also, in series [2], the “stoichiometry N” value was 2.

A word on the stoichiometry N: it is the number of molecules, sites or subunits per partner or assembly. The term Km denotes the substrate concentration at which the rate is half of its maximum. The term kcat denotes the number of substrate molecules converted per active site and unit of time at saturation.
